# Measurements taken from doi:10.1101/2021.12.06.471412 (bioRxiv, 2021).
# T1: purified human TRAP1 (human, UniProt Q12931 60-704)
# T1 sequence: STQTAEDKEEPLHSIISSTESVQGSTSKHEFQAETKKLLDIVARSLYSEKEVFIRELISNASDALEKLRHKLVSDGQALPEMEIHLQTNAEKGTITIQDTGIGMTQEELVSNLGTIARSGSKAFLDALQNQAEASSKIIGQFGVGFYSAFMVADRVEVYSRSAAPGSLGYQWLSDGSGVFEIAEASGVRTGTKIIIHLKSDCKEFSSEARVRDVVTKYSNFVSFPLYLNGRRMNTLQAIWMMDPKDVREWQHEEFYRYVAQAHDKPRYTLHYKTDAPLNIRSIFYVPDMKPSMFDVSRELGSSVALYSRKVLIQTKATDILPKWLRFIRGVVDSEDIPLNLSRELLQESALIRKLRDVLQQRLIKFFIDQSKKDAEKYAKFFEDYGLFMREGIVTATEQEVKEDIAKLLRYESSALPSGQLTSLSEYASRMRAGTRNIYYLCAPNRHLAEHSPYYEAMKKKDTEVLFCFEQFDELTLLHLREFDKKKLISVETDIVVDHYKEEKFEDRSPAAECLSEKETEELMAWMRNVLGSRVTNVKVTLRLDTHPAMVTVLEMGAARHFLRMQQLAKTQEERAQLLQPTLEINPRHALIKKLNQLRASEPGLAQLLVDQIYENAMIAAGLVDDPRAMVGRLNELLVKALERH
# T2: recombinant mature human OSCP (human, UniProt P48047 24-213)
# T2 sequence: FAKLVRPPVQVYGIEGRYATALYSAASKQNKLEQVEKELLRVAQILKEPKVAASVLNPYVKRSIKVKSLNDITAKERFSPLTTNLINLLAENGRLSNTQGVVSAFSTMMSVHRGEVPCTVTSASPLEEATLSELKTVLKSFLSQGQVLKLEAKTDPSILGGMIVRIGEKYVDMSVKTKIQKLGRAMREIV
# What was measured:
# purified human TRAP1 = target: T1, purified human TRAP1; test: far-Western, overlay or dot blot
# [1] = target: T2, recombinant mature human OSCP; test: SPR
binding result (purified human TRAP1),binding result [1],Binder
binds,,F-ATP synthase subunit α (bovine heart) (natural protein) QKTGTAEVSSILEERILGADTSVDLEETGRVLSIGDGIARVHGLRNVQAEEMVEFSSGLKGMSLNLEPDNVGVVVFGNDKLIKEGDIVKRTGAIVDVPVGEELLGRVVDALGNAIDGKGPIGSKARRRVGLKAPGIIPRISVREPMQTGIKAVDSLVPIGRGQRELIIGDRQTGKTSIAIDTIINQKRFNDGTDEKKKLYCIYVAIGQKRSTVAQLVKRLTDADAMKYTIVVSATASDAAPLQYLAPYSGCSMGEYFRDNGKHALIIYDDLSKQAVAYRQMSLLLRRPPGREAYPGDVFYLHSRLLERAAKMNDAFGGGSLTALPVIETQAGDVSAYIPTNVISITDGQIFLETELFYKGIRPAINVGLSVSRVGSAAQTRAMKQVAGTMKLELAQYREVAAFAQFGSDLDAATQQLLSRGVRLTELLKQGQYSPMAIEEQVAVIYAGVRGYLDKLEPSKITKFENAFLSHVISQHQALLSKIRTDGKISEESDAKLKEIVTNFLAGFEA
,binds,recombinant mature human CyPD (natural protein) not shown

# The next lines start with the binder.
Binder,binding result (purified human TRAP1),binding result [1]
F-ATP synthase subunit b (bovine heart) (natural protein) PVPPLPEHGGKVRFGLIPEEFFQFLYPKTGVTGPYVLGTGLILYLLSKEIYVITPETFSAISTIGFLVYIVKKYGASVGEFADKLNEQKIAQLEEVKQASIKQIQDAIDMEKSQQALVQKRHYLFDVQRNNIAMALEVTYRERLHRVYREVKNRLDYHISVQNMMRQKEQEHMINWVEKRVVQSISAQQEKETIAKCIADLKLLSKKAQAQPVM,binds,
F-ATP synthase subunit OSCP (bovine heart) (natural protein) FAKLVRPPVQIYGIEGRYATALYSAASKQNKLEQVEKELLRVGQILKEPKMAASLLNPYVKRSVKVKSLSDMTAKEKFSPLTSNLINLLAENGRLTNTPAVISAFSTMMSVHRGEVPCTVTTASALDEATLTELKTVLKSFLSKGQVLKLEVKIDPSIMGGMIVRIGEKYVDMSAKTKIQKLSRAMREIL,binds,
F-ATP synthase subunit g (bovine heart) (natural protein) MAEFVRNLAEKAPALVNAAVTYSKPRLATFWYYAKVELVPPTPAEIPTAIQSLKKIINSAKTGSFKQLTVKEALLNGLVATEVWMWFYVGEIIGKRGIIGYDV,binds,
